The test system of data set [1] is Cc1cc(=O)oc2cc(NC(=O)[C@H](CCCNC(=N)N)NC(=O)[C@H](Cc3ccccc3)NC(=O)[C@@H]3CCCN3)ccc12. The data set is described as follows: Inhibition of PKK (Ki), kinetic assay. The format is biochemical, human. Conditions: other: substrate KM, enzyme PKK; pH 7.8; 24.0 °C. The method, then:
(§1) The ability of compounds of formula (I) to inhibit plasma kallikrein (PKK), Factor XIIa (FXIIa), Factor XIa (FXIa), Factor Xa (FXa), Factor IIa (alpha-thrombin; FIIa), plasmin, trypsin, tissue kallikrein 1 (TK1), Factor Vila (FVIIa), or FVIIa complexed with Tissue Factor, phospholipids and CaCl2) (FVIIa/TF/PL/CaCl2) was determined using the following biochemical assays in assay buffer (100 mM Tris, 150 mM NaCL, adjusted to a pH of 7.8 with HCl, and containing 0.1% (w/v) BSA and 0.05% (v/v) Tween20) in the presence of 1% (v/v) DMSO:
Human PKK (1.78 nM or 0.025 U/mL; Enzyme Research Laboratories) was incubated at 24° C. with 0.25 mM fluorogenic substrate H-Pro-Phe-Arg-AMC (11295 from Bachem) and various concentrations of the test compound in assay buffer. Measurements were performed in a kinetic interval every 2nd minute for 16 min using a Spectramax M5 (Molecular Devices) with the following settings of the wavelength excitation of 350 nm and wavelength emission of 450 nm. The number of the compound corresponds to the number of the Example in the experimental section.
The pIC50 values were then fitted using a four-parametric fitting procedure using GraphPad Prism (version 6; GraphPad Software, Inc.). […]

Data set [2] deals with Cc1cc(=O)oc2cc(NC(=O)[C@H](CCCNC(=N)N)NC(=O)[C@H](C)NC(=O)[C@H](CCC(=O)OCc3ccccc3)NC(=O)OC(C)(C)C)ccc12. Description: Inhibition of FXIa (Ki). The format is biochemical, human. The settings on record: other: substrate KM, enzyme FXIa; pH 7.8; 24.0 °C. Here is the method:
as §1
Human FXIa (0.5 nM or 0.016 U/mL; Enzyme Research Laboratories) was incubated at 24° C. with 0.25 mM fluorogenic substrate Boc-Glu(OBzl)-Ala-Arg-AMC.HCl (11575 from Bachem) and various concentrations of the test compound in assay buffer. Measurements were performed in a kinetic interval every 2nd minute for 16 min using a Spectramax M5 (Molecular Devices) with the following settings of the wavelength excitation of 350 nm and wavelength emission of 450 nm.
The pIC50 values were then fitted using a four-parametric fitting procedure using GraphPad Prism (version 6; GraphPad Software, Inc.). Respective Ki values were obtained by correction of the IC50 values for the respective KM value of the used substrate (see Table A for the obtained KM values of the used substrates) using the following formula: […]

Chain of Human PKK (Homo sapiens) (chain, as listed by the source): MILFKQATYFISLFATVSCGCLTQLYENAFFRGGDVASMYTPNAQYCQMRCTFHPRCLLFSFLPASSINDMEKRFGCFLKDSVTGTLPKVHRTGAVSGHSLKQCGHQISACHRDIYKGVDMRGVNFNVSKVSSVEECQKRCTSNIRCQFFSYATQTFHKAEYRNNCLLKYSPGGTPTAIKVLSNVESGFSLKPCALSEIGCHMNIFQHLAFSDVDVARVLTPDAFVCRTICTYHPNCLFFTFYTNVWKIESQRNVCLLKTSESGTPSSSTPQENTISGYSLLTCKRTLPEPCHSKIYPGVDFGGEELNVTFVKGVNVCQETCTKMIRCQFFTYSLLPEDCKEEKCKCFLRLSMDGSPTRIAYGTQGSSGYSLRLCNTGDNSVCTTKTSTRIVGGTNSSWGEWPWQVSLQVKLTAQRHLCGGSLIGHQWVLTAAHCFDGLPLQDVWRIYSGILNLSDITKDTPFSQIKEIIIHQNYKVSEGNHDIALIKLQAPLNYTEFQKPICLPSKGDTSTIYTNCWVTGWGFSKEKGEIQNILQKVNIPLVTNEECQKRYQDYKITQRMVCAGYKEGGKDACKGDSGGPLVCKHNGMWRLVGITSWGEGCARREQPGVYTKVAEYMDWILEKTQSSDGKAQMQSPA

As to Human PKK (Homo sapiens), in data set [1], the Km came out at 160 µM.
Regarding Human FXIa (Homo sapiens), the Km in data set [2] was found to be 290 µM.

For the origin of these results see patent US12091399B2, “Phenyltetrazole derivatives as plasma kallikrein inhibitors” (Boehringer Ingelheim International GmbH, priority 2018, dated 2024).
